According to patent US20220226375A1 (CRISPR THERAPEUTICS, published 2022):

B1: CTX-982b CAR (anti-CD33 CAR, Antibody C scFv VH-VL, 41BB co-stimulatory domain, CD3z) (other)
chain: EVQLVQSGAEVKKPGSSVKVSCKASGYTITDSNIHWVRQAPGQSLEWIGYIYPYNGGTDYNQKFKNRATLTVDNPTNTAYMELSSLRSEDTAFYYCVNGNPWLAYWGQGTLVTVSSGGGGSGGGGSGGGGSDIQLTQSPSTLSASVGDRVTITCRASESLDNYGIRFLTWFQQKPGKAPKLLMYAASNQGSGVPSRFSGSGSGTEFTLTISSLQPDDFATYYCQQTKEVPWSFGQGTKVEVKSAAAFVPVFLPAKPTTTPAPRPPTPAPTIASQPLSLRPEACRPAAGGAVHTRGLDFACDIYIWAPLAGTCGVLLLSLVITLYCNHRNRKRGRKKLLYIFKQPFMRPVQTTQEEDGCSCRFPEEEEGGCELRVKFSRSADAPAYQQGQNQLYNELNLGRREEYDVLDKRRGRDPEMGGKPRRKNPQEGLYNELQKDKMAEAYSEIGMKGERRRGKGHDGLYQGLSTATKDTYDALHMQALPPR
B2: CTX-969 CAR (anti-CD33 CAR, Antibody B scFv VH-VL, CD28 co-stimulatory domain, CD3z) (other)
chain: QVQLVQSGAEVKKPGASVKVSCKASGYTFTNYDINWVRQAPGQGLEWIGWIYPGDGSTKYNEKFKAKATLTADTSTSTAYMELRSLRSDDTAVYYCASGYEDAMDYWGQGTTVTVSSGGGGGSGGGGSGGGGSDIQMTQSPSSLSASVGDRVTINCKASQDINSYLSWFQQKPGKAPKTLIYRANRLVDGVPSRFSGSGSGQDYTLTISSLQPEDFATYYCLQYDEFPLTFGGGTKVEIKSAAAFVPVFLPAKPTTTPAPRPPTPAPTIASQPLSLRPEACRPAAGGAVHTRGLDFACDIYIWAPLAGTCGVLLLSLVITLYCNHRNRSKRSRLLHSDYMNMTPRRPGPTRKHYQPYAPPRDFAAYRSRVKFSRSADAPAYQQGQNQLYNELNLGRREEYDVLDKRRGRDPEMGGKPRRKNPQEGLYNELQKDKMAEAYSEIGMKGERRRGKGHDGLYQGLSTATKDTYDALHMQALPPR
B3: CTX-982 CAR (anti-CD33 CAR, Antibody C scFv VH-VL, CD28 co-stimulatory domain, CD3z) (other)
chain: EVQLVQSGAEVKKPGSSVKVSCKASGYTITDSNIHWVRQAPGQSLEWIGYIYPYNGGTDYNQKFKNRATLTVDNPTNTAYMELSSLRSEDTAFYYCVNGNPWLAYWGQGTLVTVSSGGGGSGGGGSGGGGSDIQLTQSPSTLSASVGDRVTITCRASESLDNYGIRFLTWFQQKPGKAPKLLMYAASNQGSGVPSRFSGSGSGTEFTLTISSLQPDDFATYYCQQTKEVPWSFGQGTKVEVKSAAAFVPVFLPAKPTTTPAPRPPTPAPTIASQPLSLRPEACRPAAGGAVHTRGLDFACDIYIWAPLAGTCGVLLLSLVITLYCNHRNRSKRSRLLHSDYMNMTPRRPGPTRKHYQPYAPPRDFAAYRSRVKFSRSADAPAYQQGQNQLYNELNLGRREEYDVLDKRRGRDPEMGGKPRRKNPQEGLYNELQKDKMAEAYSEIGMKGERRRGKGHDGLYQGLSTATKDTYDALHMQALPPR

Legend:
[1] = molecular target: CD33 on the surface of human cells (AML cell lines THP-1, KG-1, MV4-11; activated primary human T cells) (human, UniProt P20138 18-364); test: cell-based or functional assay
CD33 on the surface of human cells (AML cell lines THP-1, KG-1, MV4-11; activated primary human T cells), sequence (P20138 18-364): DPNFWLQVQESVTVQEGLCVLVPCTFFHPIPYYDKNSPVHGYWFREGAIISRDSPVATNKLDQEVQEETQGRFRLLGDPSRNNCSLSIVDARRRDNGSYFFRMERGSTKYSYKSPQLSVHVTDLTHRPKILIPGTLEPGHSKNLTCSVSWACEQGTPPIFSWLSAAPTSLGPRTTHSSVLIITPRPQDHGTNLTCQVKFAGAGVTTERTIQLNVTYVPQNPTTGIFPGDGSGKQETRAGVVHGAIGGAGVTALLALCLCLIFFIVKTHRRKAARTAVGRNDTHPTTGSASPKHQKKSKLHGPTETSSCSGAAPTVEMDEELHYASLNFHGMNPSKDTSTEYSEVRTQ

[2] = molecular target: T1, CD33 protein (AcroBiosystems) conjugated to biotin (UniProt P20138 18-259, biotinylated (site not stated)); test: flow cytometry; cell-surface CAR on edited T cells labelled with biotinylated CD33 protein and streptavidin-APC
T1 construct: Soluble bought reagent used at 2 ug/uL with streptavidin-APC to label cell-surface anti-CD33 CAR; also called biotinylated CD33 protein, CD3-H82E7
T1 sequence (P20138 18-259 limits assumed): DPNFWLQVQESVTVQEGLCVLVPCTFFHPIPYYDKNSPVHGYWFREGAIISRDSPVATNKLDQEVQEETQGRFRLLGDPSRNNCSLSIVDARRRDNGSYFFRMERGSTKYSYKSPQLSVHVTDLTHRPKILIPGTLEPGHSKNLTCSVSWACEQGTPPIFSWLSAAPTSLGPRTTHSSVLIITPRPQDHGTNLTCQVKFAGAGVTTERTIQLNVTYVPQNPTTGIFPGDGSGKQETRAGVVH
Description: About one (1) week post electroporation, gene-edited T cells were analyzed by flow cytometry to assess the percentage of the cell population that expressed an anti-CD33 CAR. Labeling of cell-surface anti-CD33 CAR was done with a combination of a CD33 protein (AcroBiosystems) conjugated to biotin and a streptavidin-APC secondary reagent (FIG. 1A, FIG. 1B and FIG. 1C). […] In contrast, certain T cells generated with a TRAC and B2M gene disruption and a CAR construct did result in a high percentage of the population that expressed an anti-CD33 CAR. […] However, not all T cells prepared with a CAR construct had CAR expression. […] Indeed, this outcome was not altered by switching the CAR co-stimulatory domain (e.g., CTX-964 compared to CTX-964b).

Row | Binder | percent cell lysis of CD33 KO MV4-11 cells (CD33-deficient comparison) at 1:1 ratio [1] [%] | binding result [2]
1 | B1 | > 60 | 
2 | B2 |  | binds
3 | B3 |  | binds
